Source: paper PMC8233204, “Cardiac myosin-binding protein C interaction with actin is inhibited by compounds identified in a high-throughput fluorescence lifetime screen” (The Journal of Biological Chemistry, 2021)
Where two headings read alike, the source gives them in different places. Each block holds one molecule with its values, some of them ahead of it.

Key:
[1] = molecular target: FMAL-actin (F-actin from rabbit skeletal muscle labeled at Cys-374 with fluorescein-5-maleimide) (rabbit) (UniProt P68135); assay: FRET or BRET; TR-FRET; 1 μM F-actin labeled (to 10%) with FMAL (donor) with 0-20 μM TMR-C0-C2^Cys225 (acceptor) ±PKA; M-ABB
[2] = molecular target: FMAL-actin (F-actin from rabbit skeletal muscle labeled at Cys-374 with fluorescein-5-maleimide) (rabbit) (UniProt P68135); assay: as above; remark: listed apart in the source
ErIA-actin = molecular target: T1, ErIA-actin (Oryctolagus cuniculus, UniProt P68135); assay: Transient phosphorescence anisotropy (TPA) of ErIA-actin alone; assay type: biochemical, rabbit; details: concentration not given
T1 construct: Actin was prepared from rabbit skeletal muscle by extracting acetone powder; from tissue; host or cells: rabbit skeletal muscle (acetone powder)
Procedure: […] These were added together with glucose catalase/oxidase to prevent photobleaching, and TPA was performed at 25 °C to determine anisotropy values ([7]).

ErIA-actin + C0-C2 = molecular target: T2, ErIA-actin + C0-C2 (Homo sapiens, UniProt Q14896); assay: Transient phosphorescence anisotropy (TPA) of ErIA-actin with C0-C2; assay type: biochemical; details: 1 μM ErIA-actin, 2 μM C0-C2; actin alone 0.033 ± 0.001
T2 construct: N-terminal domains C0 through C2 (C0-C2), containing the proline/alanine-rich linker (P/A) and the M-domain (M); 6x His (N, cleaved yes); TEV protease cleavage site (N, cleaved yes); made in house; host or cells: E. coli BL21DE3 (C0-C2); actin purified from rabbit skeletal muscle
Procedure: The same mixtures were tested in the presence of 2 μM C0-C2. These were added together with glucose catalase/oxidase to prevent photobleaching, and TPA was performed at 25 °C to determine anisotropy values ([7]).

T2 sequence (Q14896 1-451 limits assumed): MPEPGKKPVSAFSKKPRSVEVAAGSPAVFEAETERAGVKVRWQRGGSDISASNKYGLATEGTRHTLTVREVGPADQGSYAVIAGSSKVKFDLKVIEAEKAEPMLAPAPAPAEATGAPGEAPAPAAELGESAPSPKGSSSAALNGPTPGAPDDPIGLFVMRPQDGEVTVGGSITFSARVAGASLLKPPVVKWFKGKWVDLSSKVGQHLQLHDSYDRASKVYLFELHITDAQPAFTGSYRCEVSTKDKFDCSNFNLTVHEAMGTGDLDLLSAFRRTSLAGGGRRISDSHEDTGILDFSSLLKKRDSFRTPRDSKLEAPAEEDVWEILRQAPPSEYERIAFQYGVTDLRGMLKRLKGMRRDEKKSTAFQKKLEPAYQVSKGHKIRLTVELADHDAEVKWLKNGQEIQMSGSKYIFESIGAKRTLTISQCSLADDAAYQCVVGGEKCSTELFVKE

- Kd [1]: 1000 nM
- Kd [2]: 2600 nM
- donor lifetime τDA of FMAL-actin with 20 μM TMR-C0-C2^Cys225 (τD = 4.2 ns) [2]: 2 ns
Molecule: TMR-C0-C2^Cys225 (single-cysteine C0-C2 of human cMyBP-C labeled with tetramethylrhodamine at Cys225) (from UniProt Q14896 1-1274) (domain or fragment)

Molecule: O=C(NCCO)c1cccc(-c2cc(Nc3ccc(OC(F)(F)F)cc3)ncn2)c1 [GNF-5]
- effect on actin anisotropy (TPA), control compound (ErIA-actin): does bind actin and changes its anisotropy

- actin's final anisotropy in the presence of C0-C2 (ErIA-actin + C0-C2): 0.071 ± 0.003
Molecule: C0-C2: recombinant N-terminal fragment (domains C0 through C2) of human cMyBP-C
